Where no end group is shown, it is not given here. [ ]: non-standard residue; d: D form. 40K‑TE = not defined here; Ac3c = NC1(C(=O)O)CC1; Aib = CC(C)(N)C(=O)O
Experiments:
Experiment in all cases: cell-based or functional assay
glucagon receptor = glucagon receptor (UniProt P47871 26-477, limits assumed)
GLP-1 receptor = GLP-1 receptor (UniProt P43220 24-463, limits assumed)
GIP receptor = biological target: T1, GIP receptor (UniProt P48546 22-466, limits assumed)
T1 sequence (looked up): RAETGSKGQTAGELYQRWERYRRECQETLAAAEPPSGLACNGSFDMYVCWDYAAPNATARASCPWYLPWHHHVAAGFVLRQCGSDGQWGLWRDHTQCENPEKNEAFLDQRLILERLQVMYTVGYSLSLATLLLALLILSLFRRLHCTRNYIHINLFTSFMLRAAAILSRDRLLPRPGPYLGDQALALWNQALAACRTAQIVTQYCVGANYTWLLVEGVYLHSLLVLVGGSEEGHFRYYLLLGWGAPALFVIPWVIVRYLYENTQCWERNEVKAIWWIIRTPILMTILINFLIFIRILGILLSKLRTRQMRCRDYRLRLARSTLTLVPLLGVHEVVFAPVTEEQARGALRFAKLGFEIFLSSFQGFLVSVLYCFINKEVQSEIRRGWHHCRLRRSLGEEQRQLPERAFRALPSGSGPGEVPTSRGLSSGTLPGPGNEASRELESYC

Chain of glucagon receptor (P47871 26-477 limits assumed): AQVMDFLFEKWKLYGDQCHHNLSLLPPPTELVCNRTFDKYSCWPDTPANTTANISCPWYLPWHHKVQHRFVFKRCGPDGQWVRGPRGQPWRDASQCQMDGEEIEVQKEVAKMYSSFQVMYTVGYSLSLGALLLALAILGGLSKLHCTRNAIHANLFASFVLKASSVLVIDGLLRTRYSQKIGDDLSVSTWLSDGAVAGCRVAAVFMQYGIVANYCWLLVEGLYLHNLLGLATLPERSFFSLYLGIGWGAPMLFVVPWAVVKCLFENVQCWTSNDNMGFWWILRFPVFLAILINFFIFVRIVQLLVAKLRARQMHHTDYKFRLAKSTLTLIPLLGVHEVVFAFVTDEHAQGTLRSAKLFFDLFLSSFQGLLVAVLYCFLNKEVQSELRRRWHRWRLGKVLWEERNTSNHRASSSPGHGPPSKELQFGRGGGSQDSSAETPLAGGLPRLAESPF

B1: peptide of SEQ ID NO: 50 (peptide)
peptide: Y[dS]QGTFTSDYSIYLDKQAA[Aib]EFVNWLLAGGPSSGAPPPSC-NH2
modifications: N-terminus assumed
SMILES: CC[C@H](C)[C@H](NC(=O)[C@H](CO)NC(=O)[C@H](Cc1ccc(O)cc1)NC(=O)[C@H](CC(=O)O)NC(=O)[C@H](CO)NC(=O)[C@@H](NC(=O)[C@H](Cc1ccccc1)NC(=O)[C@@H](NC(=O)CNC(=O)[C@H](CCC(N)=O)NC(=O)[C@@H](CO)NC(=O)[C@@H](N)Cc1ccc(O)cc1)[C@@H](C)O)[C@@H](C)O)C(=O)N[C@@H](Cc1ccc(O)cc1)C(=O)N[C@@H](CC(C)C)C(=O)N[C@@H](CC(=O)O)C(=O)N[C@@H](CCCCN)C(=O)N[C@@H](CCC(N)=O)C(=O)N[C@@H](C)C(=O)N[C@@H](C)C(=O)NC(C)(C)C(=O)N[C@@H](CCC(=O)O)C(=O)N[C@@H](Cc1ccccc1)C(=O)N[C@H](C(=O)N[C@@H](CC(N)=O)C(=O)N[C@@H](Cc1c[nH]c2ccccc12)C(=O)N[C@@H](CC(C)C)C(=O)N[C@@H](CC(C)C)C(=O)N[C@@H](C)C(=O)NCC(=O)NCC(=O)N1CCC[C@H]1C(=O)N[C@@H](CO)C(=O)N[C@@H](CO)C(=O)NCC(=O)N[C@@H](C)C(=O)N1CCC[C@H]1C(=O)N1CCC[C@H]1C(=O)N1CCC[C@H]1C(=O)N[C@@H](CO)C(=O)N[C@@H](CS)C(N)=O)C(C)C
EC50 (cAMP reporter) (glucagon receptor): 0.041 nM | EC50 (cAMP reporter) (GLP-1 receptor): 0.108 nM | EC50 (cAMP reporter) (GIP receptor): 0.072 nM

Y[Aib]QGTFTSDYSIYLDKQAA[Ac3c]EFVNWLLAGGPSSGAPPPSC-NH2 [peptide of SEQ ID NO: 60]
EC50 (cAMP reporter) (glucagon receptor): 0.047 nM | EC50 (cAMP reporter) (GLP-1 receptor): 0.0028 nM

Y[dS]QGTFTSDYSIYLDKQAA[Aib]EFVNWLLAGGPSSGAPPPSC(40K‑TE)-NH2 (reading uncertain) [peptide of SEQ ID NO: 51]
EC50 (cAMP reporter) (glucagon receptor): 0.255 nM | EC50 (cAMP reporter) (GLP-1 receptor): 0.572 nM | EC50 (cAMP reporter) (GIP receptor): 0.433 nM

B2: peptide of SEQ ID NO: 48 (peptide)
peptide: H[dS]QGTFTSDYSIYLDKQAA[Aib]EFVNWLLAGGPSSGAPPPSC-NH2
modifications: N-terminus assumed
SMILES: CC[C@H](C)[C@H](NC(=O)[C@H](CO)NC(=O)[C@H](Cc1ccc(O)cc1)NC(=O)[C@H](CC(=O)O)NC(=O)[C@H](CO)NC(=O)[C@@H](NC(=O)[C@H](Cc1ccccc1)NC(=O)[C@@H](NC(=O)CNC(=O)[C@H](CCC(N)=O)NC(=O)[C@@H](CO)NC(=O)[C@@H](N)Cc1c[nH]cn1)[C@@H](C)O)[C@@H](C)O)C(=O)N[C@@H](Cc1ccc(O)cc1)C(=O)N[C@@H](CC(C)C)C(=O)N[C@@H](CC(=O)O)C(=O)N[C@@H](CCCCN)C(=O)N[C@@H](CCC(N)=O)C(=O)N[C@@H](C)C(=O)N[C@@H](C)C(=O)NC(C)(C)C(=O)N[C@@H](CCC(=O)O)C(=O)N[C@@H](Cc1ccccc1)C(=O)N[C@H](C(=O)N[C@@H](CC(N)=O)C(=O)N[C@@H](Cc1c[nH]c2ccccc12)C(=O)N[C@@H](CC(C)C)C(=O)N[C@@H](CC(C)C)C(=O)N[C@@H](C)C(=O)NCC(=O)NCC(=O)N1CCC[C@H]1C(=O)N[C@@H](CO)C(=O)N[C@@H](CO)C(=O)NCC(=O)N[C@@H](C)C(=O)N1CCC[C@H]1C(=O)N1CCC[C@H]1C(=O)N1CCC[C@H]1C(=O)N[C@@H](CO)C(=O)N[C@@H](CS)C(N)=O)C(C)C
EC50 (cAMP reporter) (glucagon receptor): 0.026 nM | EC50 (cAMP reporter) (GLP-1 receptor): 0.01 nM | EC50 (cAMP reporter) (GIP receptor): 0.433 nM

Y[Aib]QGTFTSDYSIYLDKQAA[Aib]EFVC(40K‑TE PEG)WLLAGGPSSGAPPPSK(C14)-NH2 [peptide of SEQ ID NO: 174]
EC50 (cAMP reporter) (GLP-1 receptor): 0.01 nM | EC50 (cAMP reporter) (GIP receptor): 0.019 nM
